Data: patent publication US20060089302A1, “Hsp70-derived peptides and uses thereof in the diagnosis and treatment of autoimmune diseases” (priority 2002, published 2006)
Where “and” joins values, the source holds several entries; their conditions need not be identical. Equal values may be shown once.

Experiments:
[1] = system: serum IgG anti-hsp60, anti-hsp70, anti-hsp90, anti-tetanus toxoid; assay: Determination of auto-antibodies (antibody capture ELISA on antigen-coated plates); assay type: binding, human; conditions: for IgG antibodies to the antigen in serum, Mean ± SD: group mean
Description: All of the serum samples that were collected were stored in aliquotes at −20° C. and thawed before each assay. Total human IgG anti-hsp60, anti-hsp70, and anti-hsp90, as well as anti-tetanus toxoid proteins were detected by the antibody capture-type enzyme immunoassay ELISA [Maggio, M. T. (1981) Enzyme Immunoassay, CRC Press, Boca Raton, USA]. 96-well micro titer plates (Dynatech) were coated with the protein according to the antibody being tested. Serum samples were distributed at dilutions in the range of 1:50 to 1:70 into the pre-coated wells for the protein detection assay. Thus, any IgG anti-hsp60, anti-hsp70, anti-hsp90, or anti-tetanus toxoid present should be bound by the immobilized peptide or protein. After washing off unbound material, a mouse monoclonal anti-human IgG antibody conjugated to alkaline phosphatase (AP) was added to the wells. After an additional washing step to remove any unbound anti-enzyme reagent, the AP substrate p-nitrophenyl phosphate (pNPP) solution was added. The intensity of the color developed was measured using an Anthos htll ELISA reader at λ=405 nm. The amount of antibody detected was represented as Units of Optical Density at λ=405 nm. Patients and control subjects were assayed in the same experiment.
The InStat 2.01 computer program was used for the statistical analysis. The results obtained from the samples of healthy individuals were used to determine the cutoff for each assay, which was established as the mean plus two standard deviations (SDs). […] The results were presented as the percentage of positive from the total tested group.
Levels of IgG antibodies to hsp60, hsp70, and hsp90 were measured in the sera of 20 Type 1 Diabetes children (P1-P5, P7-P21; Table 3A) and two control groups, 10 normoglycemic children (Table 3B) and 15 healthy adult blood donors (Table 3C). The level of the antibodies was scored as positive when it was greater than the cut-off level (cut-off levels were established based on the mean value of antibody levels from the normoglycemic children plus two standard deviations).

[2] = system: peripheral blood mononuclear cells (PBMC) / T-cells; conditions: 25 newly diagnosed Type 1 Diabetes adult patients; Abulafia-Lapid et al. 1999; cited from earlier work
[3] = system: peripheral blood mononuclear cells (PBMC) / T-cells; assay: T-cell proliferation assay (3H-Thymidine incorporation, stimulation index); assay type: cell-based, human; conditions: for T-cell proliferative response, S.I., Mean ± SD: group mean

B1: hsp60: recombinant human hsp60 (StressGen, Canada), 60 kDa heat-shock protein (protein)
chain: AKDVKFGADARALMLQGVDLLADAVAVTMGPKGRTVIIEQSWGSPKVTKDGVTVAKSIDLKDKYKNIGAKLVQDVANNTNEEAGDGTTTATVLARSIAKEGFEKISKGANPVEIRRGVMLAVDAVIAELKKQSKPVTTPEEIAQVATISANGDKEIGNIISDAMKKVGRKGVITVKDGKTLNDELEIIEGMKFDRGYISPYFINTSKGQKCEFQDAYVLLSEKKISSIQSIVPALEIANAHRKPLVIIAEDVDGEALSTLVLNRLKVGLQVVAVKAPGFGDNRKNQLKDMAIATGGAVFGEEGLTLNLEDVQPHDLGKVGEVIVTKDDAMLLKGKGDKAQIEKRIQEIIEQLDVTTSEYEKEKLNERLAKLSDGVAVLKVGGTSDVEVNEKKDRVTDALNATRAAVEEGIVLGGGCALLRCIPALDSLTPANEDQKIGIEIIKRTLKIPAMTIAKNAGVEGSLIVEKIMQSSSEVGYDAMAGDFVNMVEKGIIDPTKVVRTALLDAAGVASLLTTAEVVVTEIPKEEKDPGMGAMGGMGGGMGGGMF
[1]; Type 1 Diabetes children
  IgG antibodies to the antigen in serum, Mean ± SD: 0.6 Units of Optical Density at λ=405 nm
[1]; Type 1 diabetes children (n=20), cut-off = mean of normoglycemic children plus two SD
  Positive (antibody level above cut-off): 45%
[1]; Type 1 diabetes children (n=20), cut-off = mean of normoglycemic children plus two SD, listed as Hsp60
  Positive (antibody level above cut-off): 45%
[1]; healthy adult blood donors (n=15)
  Positive (antibody level above cut-off): 6%
[1]; healthy adult blood donors (n=15), listed as Hsp60
  Positive (antibody level above cut-off): 6.6%
[1]; healthy adult blood donors
  IgG antibodies to the antigen in serum, Mean ± SD: 0.61 ± 0.12 Units of Optical Density at λ=405 nm
[1]; pediatric control serum donors / healthy children (n=10)
  Positive (antibody level above cut-off): 10%
[1]; pediatric control serum donors / healthy children (n=10), listed as Hsp60
  Positive (antibody level above cut-off): 10%
[1]; pediatric control serum donors
  IgG antibodies to the antigen in serum, Mean ± SD: 0.45 ± 0.11 Units of Optical Density at λ=405 nm
[2]
  Patients tested positive (proliferative response): 92%
[3]
  T-cell proliferative response, Stimulation Index (S.I.): 1.25
[3]; Healthy subjects
  T-cell proliferative response, S.I., Mean ± SD: 1.79±0.74 and 1.7 ± 0.72
[3]; Type 1 Diabetes adult patients (Table 1D), tested after more than 12 weeks
  T-cell response, in words: not seen
[3]; Type 1 Diabetes adult patients
  T-cell proliferative response, S.I., Mean ± SD: 1.22 ± 0.36
[3]; Type 1 Diabetes children
  Responding subjects (S.I.≥2): 85%
  T-cell proliferative response, S.I., Mean ± SD: 3.6±2.6
[3]; Type 2 Diabetes patients
  T-cell proliferative response, S.I., Mean ± SD: 1.7 ± 0.75
[3]; healthy subjects / healthy blood donors
  Responding subjects (S.I.≥2): 39%
